{"source": "paper PMC2710861", "key": {"Rad52 [1]": {"target": "T1, Rad52 (human, UniProt P43351 1-418)", "T1 sequence": "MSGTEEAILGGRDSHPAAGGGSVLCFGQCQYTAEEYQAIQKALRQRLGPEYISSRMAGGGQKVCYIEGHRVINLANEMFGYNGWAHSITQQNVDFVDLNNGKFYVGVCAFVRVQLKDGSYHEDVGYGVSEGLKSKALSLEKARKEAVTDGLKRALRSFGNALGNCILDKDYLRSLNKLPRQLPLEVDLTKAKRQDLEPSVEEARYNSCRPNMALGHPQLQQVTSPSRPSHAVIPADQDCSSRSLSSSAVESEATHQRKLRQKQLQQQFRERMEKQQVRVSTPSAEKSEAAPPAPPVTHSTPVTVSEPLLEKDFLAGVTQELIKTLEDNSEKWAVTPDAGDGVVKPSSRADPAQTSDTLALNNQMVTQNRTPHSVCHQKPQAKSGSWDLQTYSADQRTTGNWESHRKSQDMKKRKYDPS", "test": "UV cross-linking"}, "[2]": {"target": "RPA heterotrimer (RPA70/RPA32/RPA14);Rad52 (human;human, UniProt P27694;P15927;P35244;P43351 1-616;1-270;1-121;1-418, |)", "sequence (P27694 whole entry, chain 1 of 3)": "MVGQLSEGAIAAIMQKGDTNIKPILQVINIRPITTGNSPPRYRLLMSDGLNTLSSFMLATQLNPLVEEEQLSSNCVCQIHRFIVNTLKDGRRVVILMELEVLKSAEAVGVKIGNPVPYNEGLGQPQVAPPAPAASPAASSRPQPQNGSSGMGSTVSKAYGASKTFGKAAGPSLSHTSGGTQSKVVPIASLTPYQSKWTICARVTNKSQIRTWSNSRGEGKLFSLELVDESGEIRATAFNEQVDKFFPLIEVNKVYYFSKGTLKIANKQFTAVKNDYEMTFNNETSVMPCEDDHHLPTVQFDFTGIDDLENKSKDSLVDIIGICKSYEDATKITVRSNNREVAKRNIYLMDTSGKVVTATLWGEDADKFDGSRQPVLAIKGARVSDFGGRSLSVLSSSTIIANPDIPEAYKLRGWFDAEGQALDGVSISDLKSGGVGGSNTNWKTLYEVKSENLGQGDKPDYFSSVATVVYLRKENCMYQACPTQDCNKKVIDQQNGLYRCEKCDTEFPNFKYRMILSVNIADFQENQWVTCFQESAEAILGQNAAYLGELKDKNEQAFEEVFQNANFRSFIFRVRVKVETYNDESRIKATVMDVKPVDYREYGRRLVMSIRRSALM", "sequence (P15927 whole entry, chain 2 of 3)": "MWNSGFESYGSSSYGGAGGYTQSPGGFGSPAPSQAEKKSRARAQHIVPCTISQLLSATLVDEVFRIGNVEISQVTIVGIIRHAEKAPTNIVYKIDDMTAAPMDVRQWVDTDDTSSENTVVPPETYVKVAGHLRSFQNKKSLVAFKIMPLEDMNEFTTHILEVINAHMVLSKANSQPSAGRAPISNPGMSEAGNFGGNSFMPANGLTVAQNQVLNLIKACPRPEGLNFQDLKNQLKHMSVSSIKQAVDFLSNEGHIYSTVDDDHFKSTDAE", "sequence (P35244 whole entry, chain 3 of 3)": "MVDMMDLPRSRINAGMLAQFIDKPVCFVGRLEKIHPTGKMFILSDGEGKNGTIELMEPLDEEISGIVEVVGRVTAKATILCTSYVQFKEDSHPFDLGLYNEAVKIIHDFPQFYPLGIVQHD", "test": "SEC-MALS and UV cross-linking"}, "[3]": {"target": "RPA heterotrimer (RPA70/RPA32/RPA14) (human, UniProt P27694;P15927;P35244 1-616;1-270;1-121)", "sequence (P27694 whole entry, chain 1 of 3)": "as the sequence (P27694 whole entry, chain 1 of 3) above", "sequence (P15927 whole entry, chain 2 of 3)": "as the sequence (P15927 whole entry, chain 2 of 3) above", "sequence (P35244 whole entry, chain 3 of 3)": "as the sequence (P35244 whole entry, chain 3 of 3) above", "test": "EMSA"}, "Rad52 [4]": {"target": "T1, Rad52", "test": "EMSA"}, "Rad52 [5]": {"target": "T1, Rad52", "test": "SEC-MALS"}}, "data": [{"binder": "GCTAGCTCAATTCATCGACAAACCT (ssDNA)", "note": "[25-mer mixed sequence ssDNA, 3'-biotin]", "values": [{"measurement": "binding result", "setting": "Rad52 [1]", "value": "binds"}, {"measurement": "binding result", "setting": "[2]", "value": "binds"}, {"measurement": "binding result", "setting": "[3]", "value": "binds"}]}, {"binder": "GCTAGCTCAATTCATCGACAAACCT (ssDNA)", "note": "[25-mer mixed sequence ssDNA, 5'-biotin]", "values": [{"measurement": "binding result", "setting": "Rad52 [4]", "value": "binds"}]}, {"binder": "GCTAGCTCAATTCATCGACAAACCTCCTCGCTCAATTCATAGTC (ssDNA)", "note": "[44-mer mixed sequence ssDNA]", "values": [{"measurement": "binding result", "setting": "Rad52 [5]", "value": "binds"}]}]}
